From patent publication US20030207263, “Method of screening therapeutic agents” (published 2003) come the findings set out here.

For data set [1], the target named is GST-Smad2 full length (UniProt Q15796 Q15796:1-467). Nature of the data set: EMSA. As to conditions: tags: GST, E. coli; label: 33P.
For data set [2], the target named is Smad2 (Homo sapiens, UniProt Q15796 Q15796:1-467). Description: EMSA. As to conditions: label: 33P. (Mobility shift assays separate free from complexed probe on a gel.)
The target of data set [3] is GST-Smad1 full length (UniProt Q15797 Q15797:1-465). Nature of the data set: EMSA. As to conditions: tags: GST, E. coli; label: 33P.
Data set [4] deals with Smad3 (Homo sapiens, UniProt P84022 P84022:1-425). Nature of the data set: EMSA; not fused to GST. As to conditions: label: 33P.
Data set [5] deals with GST-Smad4 full length (UniProt Q13485 Q13485:1-552). Nature of the data set: EMSA; direct and specific. Particulars: tags: GST, E. coli; label: 33P.
Sequence of GST-Smad4 full length (Q13485 whole entry, one chain of several): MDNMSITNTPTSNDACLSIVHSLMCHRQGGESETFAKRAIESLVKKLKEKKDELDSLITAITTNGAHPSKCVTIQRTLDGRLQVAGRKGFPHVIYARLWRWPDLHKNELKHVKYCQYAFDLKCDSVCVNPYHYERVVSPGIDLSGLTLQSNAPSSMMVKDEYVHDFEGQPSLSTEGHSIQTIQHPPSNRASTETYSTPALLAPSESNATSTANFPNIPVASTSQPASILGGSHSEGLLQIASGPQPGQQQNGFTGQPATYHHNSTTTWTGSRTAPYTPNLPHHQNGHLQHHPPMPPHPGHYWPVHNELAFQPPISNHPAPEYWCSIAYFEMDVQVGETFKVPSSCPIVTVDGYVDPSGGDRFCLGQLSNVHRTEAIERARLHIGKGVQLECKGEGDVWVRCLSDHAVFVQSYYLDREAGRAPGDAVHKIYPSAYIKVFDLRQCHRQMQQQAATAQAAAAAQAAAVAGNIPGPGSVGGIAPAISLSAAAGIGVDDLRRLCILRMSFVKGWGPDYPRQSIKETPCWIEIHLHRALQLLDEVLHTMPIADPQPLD

Sequence of Smad3 (P84022 whole entry, the tested form may be a part, one chain of several): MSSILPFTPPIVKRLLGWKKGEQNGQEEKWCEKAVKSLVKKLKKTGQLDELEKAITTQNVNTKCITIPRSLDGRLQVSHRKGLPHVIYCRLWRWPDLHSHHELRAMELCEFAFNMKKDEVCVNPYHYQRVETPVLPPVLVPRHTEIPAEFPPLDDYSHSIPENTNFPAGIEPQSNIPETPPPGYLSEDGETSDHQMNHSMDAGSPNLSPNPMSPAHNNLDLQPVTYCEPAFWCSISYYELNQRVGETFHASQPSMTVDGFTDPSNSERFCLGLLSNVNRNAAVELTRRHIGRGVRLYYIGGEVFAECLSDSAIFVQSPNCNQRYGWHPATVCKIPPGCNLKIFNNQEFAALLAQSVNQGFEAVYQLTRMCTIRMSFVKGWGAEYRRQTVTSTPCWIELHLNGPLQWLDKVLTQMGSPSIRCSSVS
Sequence of GST-Smad2 full length (Q15796 whole entry, one chain of several): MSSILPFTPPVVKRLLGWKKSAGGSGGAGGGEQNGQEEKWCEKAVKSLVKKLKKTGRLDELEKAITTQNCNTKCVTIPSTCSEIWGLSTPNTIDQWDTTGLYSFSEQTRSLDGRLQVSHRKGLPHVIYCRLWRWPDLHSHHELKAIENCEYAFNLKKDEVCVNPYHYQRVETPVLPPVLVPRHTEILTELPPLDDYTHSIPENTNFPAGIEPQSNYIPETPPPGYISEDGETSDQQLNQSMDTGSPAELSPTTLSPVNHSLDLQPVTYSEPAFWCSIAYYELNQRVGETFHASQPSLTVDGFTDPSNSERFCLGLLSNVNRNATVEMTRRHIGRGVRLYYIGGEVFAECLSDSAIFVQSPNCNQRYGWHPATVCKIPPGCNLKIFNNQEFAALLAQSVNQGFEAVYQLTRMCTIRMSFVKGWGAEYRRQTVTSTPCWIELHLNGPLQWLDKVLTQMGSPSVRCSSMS
Sequence of Smad2 (Q15796 whole entry, one chain of several): as above
Sequence of GST-Smad1 full length (Q15797 whole entry, the tested form may be a part, one chain of several): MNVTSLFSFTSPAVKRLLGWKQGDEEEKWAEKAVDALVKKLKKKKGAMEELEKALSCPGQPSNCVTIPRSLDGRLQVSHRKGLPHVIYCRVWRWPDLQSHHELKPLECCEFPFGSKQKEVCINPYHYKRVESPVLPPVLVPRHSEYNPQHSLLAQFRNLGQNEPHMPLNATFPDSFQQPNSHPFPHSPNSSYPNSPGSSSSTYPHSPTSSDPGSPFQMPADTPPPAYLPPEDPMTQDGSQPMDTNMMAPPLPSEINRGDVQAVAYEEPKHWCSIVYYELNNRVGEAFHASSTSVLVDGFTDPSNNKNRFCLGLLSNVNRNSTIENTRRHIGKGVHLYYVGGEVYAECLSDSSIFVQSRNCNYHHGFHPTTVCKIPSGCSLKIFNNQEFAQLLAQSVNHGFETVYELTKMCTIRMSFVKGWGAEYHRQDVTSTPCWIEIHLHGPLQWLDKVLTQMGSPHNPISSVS

B1: CAGA probe (dsDNA)
DNA 1: TCGAGAGCCAGACAAGGAGCCAGACAAGGAGCCAGACAC
DNA 2: GTGTCTGGCTCCTTGTCTGGCTCCTTGTCTGGCTCTCGA
B1: the binding result in data set [1] is “no binding”; in data set [2], “no binding”; in data set [3], “no binding”; in data set [4] it was “binds”; in data set [5], “binds”.
